From the supplement of paper PMC12455559 come the findings set out here.

Series [1] is described as follows: melting temperature (DSF); higher = more thermostable. The method, boiled down: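 After expression in E. coli C41(DE3), the candidate enzymes were bound to nickel beads and released with SUMO protease. Their melting temperature was found by differential scanning fluorimetry with Sypro Orange on a Bio-Rad CFX96. Each sealed PCR plate well held 45 μL enzyme (0 to 0.3 mg/mL) plus 5 μL 5X dye, and fluorescence was read for 250 cycles from 25 °C at 0.3 °C per cycle (ramp 0.3 °C/s).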

Series [2] in a line: purified protein yield per well (BCA); higher = higher soluble expression. The method, boiled down: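 The measured quantity is purified protein yield per well, determined with the Pierce Rapid Gold BCA kit. Anything below 25 ug (0.1 mg/mL) lies under the detection threshold. Enzymes were expressed in E. coli C41(DE3) in 2 mL autoinduction cultures with 100 µg/mL kanamycin at 37 °C for 2 h, then 18 °C for 40 h, and purified on an OT-2 robot using Ni-charged magnetic beads and SUMO protease release.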

Series [3] can be described thus: PET hydrolysis, aromatic products released after 48 h (umol product/mg enzyme); higher = more PET depolymerization activity. The method, boiled down: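 Hydrolysis activity toward PET is reported as supernatant aromatic product per mg enzyme. To measure it, 5 μg (50 μL) of tagless enzyme was incubated with 3.5 mg amorphous PET film or crystalline PET powder in 450 μL buffer for 48 h at 40 or 60 °C in sealed, unshaken plates. The product was quantified by absorbance at 260 and 280 nm relative to buffer blanks.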

Where [4] appears, read: substrate: aFilm, 40 °C, pH 4.5.
The mark [5] stands for this setting: substrate: aFilm, 40 °C, pH 5.5.
Setting [6] is: substrate: aFilm, 40 °C, pH 6.5.
Setting [7] is: substrate: aFilm, 40 °C, pH 7.5.
Setting [8] is: substrate: aFilm, 60 °C, pH 4.5.
[9] abbreviates: substrate: aFilm, 60 °C, pH 5.5.
The mark [10] stands for this setting: substrate: aFilm, 60 °C, pH 6.5.
[11] abbreviates: substrate: aFilm, 60 °C, pH 7.5.
The mark [12] stands for this setting: substrate: cryPow, 40 °C, pH 4.5.
The mark [13] stands for this setting: substrate: cryPow, 40 °C, pH 5.5.
Setting [14] is: substrate: cryPow, 40 °C, pH 6.5.
[15] abbreviates: substrate: cryPow, 40 °C, pH 7.5.
The mark [16] stands for this setting: substrate: cryPow, 60 °C, pH 4.5.
[17] abbreviates: substrate: cryPow, 60 °C, pH 5.5.
The mark [18] stands for this setting: substrate: cryPow, 60 °C, pH 6.5.
Setting [19] is: substrate: cryPow, 60 °C, pH 7.5.

± gives the standard deviation of the averaged measurements. Bounds are passed on as bounds.

Consider “RPASAQDNPYERGPAPTVSSVAAQRGTFATAELTVPPGNGFNGGKIYYPTDTSLGTWGAVAAVPGYTAKWAAEGAWMGPWLASFGFVVIGIDTNSPNDYDTARGTQLLAALDYLTQKSAVRDRVDPNRLGVIGHSMGGGGAISAAVRRPSLKAALPLAPFSPSQNLSTLRVPTVIMGARDDGTVTPSYLDGLYGGMPAGTQSAFIELSSGGHGFPTWGNSNVTRRMIPWLKIFLDNDTRYTQFLCPSLADTSGVSRSKLKCPYVPPGGTTPPPPSGGPIVGAASGRCLEVPNSSQTNGTQVQLWDCLDRAGQKWTRTAAGELRVYGTKCLDAEASGTSPGTRVVIWDCHGGQNQQWNVNSNGTITSARSGLCLDAYNAGTGNGTQGVLWNCNGGANQRWALG [TEP024]”, for which the melting temperature in series [1] was found to be 61 C. In addition, the “purified protein yield per well” value in series [2] was 368 µg. Further, the PET hydrolysis in series [3] (setting [4]), in series [3] (setting [5]), in series [3] (setting [6]), in series [3] (setting [7]), in series [3] (setting [8]) and in series [3] (setting [9]) was less than 3 each time. The PET hydrolysis was less than 3 in series [3] (setting [10]); less than 3 in series [3] (setting [11]); less than 3 in series [3] (setting [12]); 4.5 ± 0.71 in series [3] (setting [13]); 11.5 ± 2.1 in series [3] (setting [14]); 14.5 ± 0.71 in series [3] (setting [15]). For the same sequence, the PET hydrolysis in series [3] (setting [16]), in series [3] (setting [17]), in series [3] (setting [18]) and in series [3] (setting [19]) was less than 3 each time.

In series [1], “MNAVGPTTPPTTTPPTTPAGDNPYQRGPDPTVASVAAQYGPFATAQITVPPGNGFNGGFIYYPTDSSHTYGAVAIVPGYTALFADEEAWMGPRLASFGFVVIGVETNSRTDYDTARGTQLLAALDYLTNSSAVRDRVDRNRLAVIGHSMGGGGALYAATQRPSLKAAIGLAPFKPSGNLASDTVPTMIIGGINDTTVTPSYLDGLYPTLPAATPGAYLQLANADHLYFTRPNDIEMRSQIEWLKIFVDNDTRYTPFLCPSIKDTTGIVRSNVKCSTIPGGGSTSPPTTTPPPAGSNRIVGAQSGRCVDVPGASQTNGTRVQLYDCNGQPNQAWTLTASKQLTVYGSRCLDAAGSGNGSAVQIYSCNGQANQQWNVNANGTITGVQSGRCLDVWGTGNGQQVQIYDCNGQANQRFGLS [ESM052]” registered a melting temperature of 61.6 C. The “purified protein yield per well” value in series [2] came to 248 µg. Besides, the PET hydrolysis in series [3] (setting [4]) is 4.5 ± 0.71; in series [3] (setting [5]), 7.5 ± 0.71; in series [3] (setting [6]), less than 3; in series [3] (setting [7]), less than 3; in series [3] (setting [8]) it was less than 3; in series [3] (setting [9]), less than 3. Besides, the PET hydrolysis in series [3] (setting [10]) is less than 3; in series [3] (setting [11]), less than 3; in series [3] (setting [12]), 13.5 ± 2.1; in series [3] (setting [13]), 28.5 ± 2.1; in series [3] (setting [14]), 36.5 ± 3.5; in series [3] (setting [15]) it was 17.5 ± 7.8. In addition, the PET hydrolysis was less than 3 in series [3] (setting [16]), 7.5 ± 0.71 in series [3] (setting [17]), 5.5 ± 0.71 in series [3] (setting [18]) and less than 3 in series [3] (setting [19]).

In series [1], “AVHGPDPTDALLEASRGPYATAQIDVSALAVSGFGGGTIYYPTTTSEGTFGGVAIAPGYTADKSSLAWLAARLASHGFVVFNIDTLTRLDQPDSRGRQLLAALDYLTQRSSVRSRVDASRLGVMGHSMGGGGTLEAAVSRPSLRAAVPLTPWNLDKTWPEVRTPTLIIGADLDTIAPVLTHAEPFYASLPSTLDKAYLELNNATHFAPNITDTTIGKYAVAWMKRFIDDDTRYNRFLCPGPSWSLSVEEYRSTCPF [TEP061]” showed a melting temperature of 51.4 C. Moreover, the “purified protein yield per well” value in series [2] came to 299 µg. Further, the PET hydrolysis in series [3] (setting [4]), in series [3] (setting [5]), in series [3] (setting [6]), in series [3] (setting [7]), in series [3] (setting [8]) and in series [3] (setting [9]) was less than 3 throughout. Besides, the PET hydrolysis is less than 3 in series [3] (setting [10]); less than 3 in series [3] (setting [11]); less than 3 in series [3] (setting [12]); less than 3 in series [3] (setting [13]); less than 3 in series [3] (setting [14]); 2 ± 2.8 in series [3] (setting [15]). The PET hydrolysis in series [3] (setting [16]), in series [3] (setting [17]), in series [3] (setting [18]) and in series [3] (setting [19]) was less than 3 in each case.

The sequence “QSSNPYQRGPAPTERSIEASRGPFAVAQTTVSRLSATGFGGGTIYYPTDTSQGRFGGVAISPGFTALQSSIAWLGPRIASQGFIVFTIDTITTLDQPAQRGDQLLAALDYLVQRSPAAVRDRLDPTRLAVMGHSMGGGGTLEAAKKRPSLKAAIPLTGWNLDTIWNDLRVPTLVVGAQLDLIAPILTFSLPFYNTIPASTEKVYLELAGASHFAPNLPDTNIAKYSIAWLKRWVDNDTRYTQFLCPGPRFELAISNYMSSCPM [DP056]” had a melting temperature in series [1] of 56.2 C. Also, the “purified protein yield per well” value in series [2] amounted to 36 µg. Besides, the PET hydrolysis in series [3] (setting [13]) was less than 3; in series [3] (setting [14]) it was less than 3; in series [3] (setting [15]) it was 4; in series [3] (substrate: cryPow, 40 °C, pH 8.5), 6.

As for “MRPGRVCPDSCGCRPSSRRKDATIVQQLRNETIGSPSPHRAPRRFRPRLVRAGLAALLAAGGLFTAQSGSAGAAQNPYERGPAPTVSSIEAPRGPYAVSETRVSSLGVTGFGGGTLYYPTTTRDGTFGAVAISPGYGGTQSSISWLGPRLASQGFVVFTIDTLSTLDQPAGRGGQLLAALDYLTQRSSVRDRVDSGRLGVMGHSMGGGGSLEAAKSRPALQAAIPLTGWNLDKTWQELRTPTLVVGADGDTIAPVSSHSEPFYESLAGSLDKAYLELNGASHFTPNSSNTTIAKYSVSWLKRFIDNDLRYEQFLCPLPRPGATIEEYRGNCPHTS [TEP099]”, the melting temperature in series [1] came out at 50.2 C. Also, in series [2], the “purified protein yield per well” value stood at 68.5 µg. The PET hydrolysis in series [3] (setting [12]), in series [3] (setting [13]), in series [3] (setting [14]), in series [3] (setting [15]), in series [3] (setting [16]) and in series [3] (setting [17]) was less than 3 each time. Further, the PET hydrolysis in series [3] (setting [18]) and in series [3] (setting [19]) was less than 3 each time.
